Consider 1 substance from publication PMC5846730.

In this test the target is GbnD4 DHD domain (Burkholderia gladioli BCC0238). The test can be described thus: NMR titration.

For the substance “GbnD5 apo-DH-ACP di-domain (domain or fragment)”, the average apparent KD of the Val19-Glu30 and Ala49-Arg60 regions lay within 7 to 15 µM.
